Experiments:
[1] = substrate: O=C1CC(O)(c2ccc(O)cc2)Oc2cc(O)cc(O)c21; assay: purified protein; settings: UDP-Glc as sugar donor; C-glucosylation
[2] = substrate: O=C(CCc1ccc(O)cc1)c1c(O)cc(O)cc1O; assay: purified protein; settings: UDP-Glc as sugar donor; C-glucosylation

B1: UGT708S6 (Dendrobium catenatum) (protein)
chain: MSSGDTNLPRVLLLPSSGMGHLVPFVRLASALSERCISVSLLAVRPTISAAESLLLSSLPSSLLLDFPIKPLDPSLFPPSSDPFFLQMEALRRSADLLPSFISTCSPPVSSLIIDISIASSFLPVAAAAKIPCFVLFTSSASMLALCSVFAFLSTPTAGADVNIAGGVLKIPTSSLPPPLRDPNHLFTTQFVENGRALAQANGILVNTFSALEPEVLVALNSGAVLPGLPPVIAIGPLPPVKKQPSLPSPALRWLDEQQEKSVMYVSFGSRTAMSKEQIRALGAGLENSGCRFFWVVKSAKVDREEVMEIEELLGEEYAKRVEERGLVVKEWVEQEVVLSHRAVAGFMSHCGWNSVTEAAAAGVRILAWPRMGDQRVNAAVVARSGLGIWPEKWAWEAEERVVAAEEIAVKVREMMRDERLAETAAQVQAEATAAVQEGGSLDQSCGYLLKKL
Km [1]: 276.900 µM
Vmax [1]: 7.68 µM/min
kcat [1]: 0.907 s⁻¹
kcat/Km [1]: 3280 M⁻¹ s⁻¹
Km [2]: 545.831 µM
Vmax [2]: 9.48 µM/min
kcat [2]: 0.563 s⁻¹
kcat/Km [2]: 1030 M⁻¹ s⁻¹
